Test: soluble fraction after stress (log2 fold change); higher = more stays soluble; pooled small domains, quantitative proteomics
Conditions: stress: 75 degC
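Note: 20 min heating vs room temperature control held 20 min.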

Sequence | soluble fraction (log2)
HMDENILKTRIEDLDLSVRTIKALTGASIRTVSGLARKKESDLLEISGLGDKGIQEIKRALGSLGITL | -0.498
HMDENTEQESQTVVVPDVTGKSLSEAASILREAGLDYLAEQTGTVVTKQMPLPDAEVLINTTVLLYTDSE | 0.143
HMDEPSITYGKVKVQTSLNVRQGPGTQYARIGSLGPNVRIQILGQEGQWYKIKYGNLQGYVHSDYVELEK | -0.026
HMDEQKNREIALIENIQREDLNPYEKALGIRNLMDKYGLTQEEVSKRIGKSRSAVSNTVRILNLAPDVL | 0.125
HMDEQLAWLYRKINAFSEIDKALILLYLEDKKYDEIAETLGISSVNARVKMNRIKKRLKEMINDR | -3.14
HMDEQVETLKNLISELPKEQLEVLVMRHYEDLSFKEISEKTGVSINTALGRMRYALINIRKLMKENN | -0.145
HMDESLIEEAKAMILQMKIEGSVRVRSNGLLEFRNPLFGSVYGRSVEELQEKLNKKVREQKSRI | -0.443
HMDEVPMPPEYQYLRVGSRVHHATFGWGKVTRLSQPWPQTRAEVFFENIGPKKLVLAHAHLTMD | -3.26
HMDEYTAVDSRLDLELAMKRLKPEEAEVLRLVFDYGLPQRAIAERLGVSQMSVSRMQRRAIGKLKRWLSDN | -1.43
HMDFKKKIIESWADIAETLRGLTVDSNISDWTTKQKNAYETLADKAELAGLSIADLNSILVELGYM | -0.119
HMDFNDPTMEKSLVELPAMSNSTLRDLSENNIKKLEELAEMSVGELMDIASKISESDASALIMEARKPWF | -0.312
HMDFRVGVWVELVQQRRSVRTQLTWVSPQHTLFLFTAKDGSTQSMTLRMRDKLLAEGNLRIVAPPSR | -2.37
HMDFSENEPVTVRVLSILKNNTIRIAVKGAVLQAQTALSQDIREGAFLLMRVHITDNTVVLTPY | 0.112
HMDFSNVNFSQVSDSELDLLMRRASAQGYTQFDLLKIARAQGLTQAEIEKLDKRFKSAETVAYVAENA | 0.0531
HMDFTHFTLKQDGKFAGSSNLLHQAVIAAARLAAETGKPVTVMAHVRGGGTRKAVFNPDGTNDKIWN | -1.05
HMDGAPVTVIKNGEVDVATTMRVGLSASELMFKLRAAGVDEVQIVHRAVLEQNGQLTIIKYGEE | -2.03
HMDGASVQRITELTATLNRYRHEYYNLAKPSVSDAVYDRLFDELAALEQKTGIVLSNSPTQTV | -0.326
HMDGFVFVMPIKETRMFSVNDERPLVGIVKYSNGEFEKEQLIGFRPNSEYEFIIEGQRLYRVPVNSITIK | -1.08
HMDGIRLYPGLMIEHKNFGRGQVVSVNRERGTFTAFFGKNGTRTLTIQILKTDTVRPLASQKAGK | -0.594

Sequence | soluble fraction (log2)
HMDGKPSLIISNGQINYKEMVKLRYSLEDLLFQLRQNSIKSIEEVEYAFLESNGKLSIFPYNFL | -2.53
HMDGLGLGAVILAQRKRQGWTQEDLAARIGVSKGAVSKWETGQSYPDLPLVPRLAALFHITVDELLDYR | -2.35
HMDGLIRLNKLLATLGVESRRHAEEMIIAGRITVDGVTATEKGQKVRRGAVIKVDGVEVGPPP | -0.581
HMDGQPQLLIKNGQLLVSTALKNGMSANDLMFRLRTEGITDIRYVKRAVLEQNGQLTITQVGDD | -0.622
HMDGVTEYTVKSGDSFSAIINKHYNVNYDEKLMQAVAAYNNIEDMNKLQLGQIIKLPPKEQLNL | -0.0462
HMDGYVPAERIASEVGVSARTITREMHGLEMTLMPYGIALLRRTGAGFMLAGTAKALADLRKHMTEDADTQ | 0.134
HMDHAHWEEHEVKLLLTLAIQEKEKFNWNQFGLTREGWRNIYPHFPQYSRKQINNKFDFLKQKYRAWKDS | -1.8
HMDHAVINSEEVTIKDLSEKIGVSAAEIIKALFTEGIIKTINDKIEYEYAQYVAGMFGVELTLKL | 0.357
HMDIANEQEQIFITAMRNDDFNPILELKMKGYQPSKNVLKSLQPDVSSTTFIAAAKIFQMEGVL | -1
HMDIASNQIQGIKDSVGGDENYSKMVAWALESLPAEEVKAFNDLTETANAPAIKMAVQGLYSQYNNAM | 0.195
HMDIDGVSENGRLILAALDKEALDFDTLAAETGIQESRLRTELTLLEIRKLIMKLPGQRYRLI | -2.39
HMDIDNDIIENILVMGVTKAIAINLSNEFERHRIIANIEYAKEKSKNSEIKNISAFTVEAIRQDYANS | -1.34
HMDIEITIPPEAKELDVSKILISGNIITDEQEFLDYLKQNNVAAFKDGNYKLNKNMTTEEIVNQIK | 0.691
HMDIESREAWVDASGMGVRLDRWLTQLAPEFSRNHLQSLIERGAVRVDGQPALVASRKLRIGQQVAVSLIP | -1.31
HMDIEVEVPNLVGMSLDEAKSIIQSMGLVVGLTIEDPSAKVSDNSVTKQKPTYQTGVKLRSGDMIDIWYAG | -0.659
HMDIFSSFVAIKNANVRELPTAKSAQVATLSKGSEVTALGKVKGKNWYLVARDGKELGYVFGSLIAEAET | -1.56
HMDIINLADNIARLRRRRQITQEELADYLGVTKAAVSKWENRQTMPDILLLPRLAGLFEVTIDELVGY | -2.19
HMDIKDRSGVTIDESNEAQQESIIRESWAEQKISGNVDNYIAYLKANGMLLETAKIELAALQEKDASLRE | 0.774
HMDILEVLIKKDLAMELLEQLTERQRTVVYLRYFYQLNQKEIADYLGISQQRVSEILSRAKAVLTAYTKK | -3

Reference: the domain aggregation screens of Martell et al. (2025)
